{
  "source": "patent US20030040612A1",
  "about": "(MOUNT SINAI SCHOOL OF MEDICINE, published 2003)",
  "molecules": {"B1": {"name": "truncated SNT-1 PTB domain lacking the β8 region (residues 2-111), GAL4 AD fusion (other, not shown: large carriers; small tags and cut ends)", "chain": "GSCCSCPDKDTVPDNHRNKFKVINVDDDGNELGSGIMELTDTELILYTRKRDSVKWHYLCLRRYGYDSNLFSFESGRRCQTGQGIFAFKCARAEELFNMLQEIMQNNSIN", "notes": "Yeast two-hybrid construct; also called SNT-1 PTB domain protein lacking the β8 strand"}, "B2": {"name": "hFGFR1 peptide, 22-residue peptide derived from the juxtamembrane region of hFGFR1 (residues 409-430 of SEQ ID NO:2), HSQMAVHKLAKSIPLRRQVTVS (SEQ ID NO:3) (peptide)", "peptide": "HSQMAVHKLAKSIPLRRQVTVS", "notes": "Synthetic peptide, not phosphorylated; also called FGFR peptide; FGF receptor peptide"}},
  "key": {"[1]": {"target": "SNT-1 PTB domain (residues 11-140 of SEQ ID NO:1) (human) (UniProt Q8WU20)", "experiment": "method not stated"}, "[2]": {"target": "T1, juxtamembrane region of hFGFR1 as GAL4 DNA binding domain (BD) fusion protein, wild type (called hFGFR1 (human); SEQ ID NO:2 is …)", "T1 construct": "Yeast two-hybrid construct; also called wild type hFGFR1", "experiment": "yeast two-hybrid, colony growth on His-, Leu-, Trp- medium", "procedure": "Mutagenesis and Yeast Two-Hybrid Binding Assays: The yeast two-hybrid binding studies of the SNT-1 PTB domain binding to hFGFR1 or tyrosine-phosphorylated TRK were performed as described previously [Xu et al., J. Biol. Chem. 273:17987-17990 (1998)]. Briefly, SNT-1 cDNA fragments were cloned into the pACT2 expression vector (Clontech) for expression as GAL4 DNA activation domain (AD) fusion proteins followed by C-terminal AU1-epitope tags. The juxtamembrane region of hFGFR1 was cloned into the pAS2-1 expression vector (Clontech) for expression as a GAL4 DNA binding domain (BD) fusion protein. This plasmid served as a template for site-directed mutagenesis of hFGFR1 using the QuikChange kit (Stratagene). DNA sequencing confirmed the mutations. AD and BD plasmids were co-transformed into Saccharomyces cerevisiae strain pJ69-4A and plated onto selective media. The synthetic medium lacking the amino acids Leu and Trp (Leu⁻, Trp⁻) selected for plasmid uptake. […] Levels of protein interaction were scored by relative colony growth on these plates. […] Similarly, expression of wild type and mutant hFGFR1 was detected by immunoprecipitation with a rabbit polyclonal antibody specific for BD (Santa Cruz Biotech) and western blotting with mouse monoclonal anti-BD antibody (Santa Cruz Biotech)."}, "[3]": {"target": "T2, SNT-1 PTB domain (residues 11-140 of SEQ ID NO:1) (human, UniProt Q8WU20 11-140)", "T2 construct": "Recombinant from E. coli, isotope labelled for NMR; His6 tag cleaved with thrombin; Used in NMR and ITC; also called PTB Domain of SNT-1; SNT PTB domain", "T2 sequence": "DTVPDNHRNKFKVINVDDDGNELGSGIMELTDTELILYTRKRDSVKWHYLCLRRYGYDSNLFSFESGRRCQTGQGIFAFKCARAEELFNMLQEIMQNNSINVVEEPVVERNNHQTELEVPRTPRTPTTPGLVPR", "experiment": "isothermal titration calorimetry (ITC)"}},
  "data": [
    {"molecule": "tyrosine-phosphorylated peptide LVIAGNPApYRS (SEQ ID NO:4)", "values": [
      {"measurement": "Kd", "setting": "[1]", "value": 1, "unit": "µM"},
      {"measurement": "fold higher affinity than for the FGFR derived peptide of SEQ ID NO:3", "setting": "[1]", "value": 10, "unit": "fold"}
    ]},
    {"molecule": "B1", "values": [
      {"measurement": "binding result", "setting": "[2]", "value": "no binding"}
    ]},
    {"molecule": "B2", "values": [
      {"measurement": "Kd", "setting": "[3]", "value": "~10", "unit": "µM"}
    ]}
  ]
}
